Each block holds one binder with its values, some of them ahead of it.
Key:
[1] = target: the molecule itself; assay: gel filtration of the E. coli-made protein
Method: Since hSTAU1^{55(R)}Δ(SSM-‘RBD’5)-FLAG still had residual dimerization activity (10% that of hSTAU1^{55(R)}-FLAG), and in view of reports that hSTAU1 ‘RBD’2 amino acids 37-79 can interact with full-length hSTAU1, the ability of E. coli-produced ‘RBD’2-RBD3 amino acids 43-173 to dimerize was assayed.
Size standards were prepared by dissolving dried proteins in 2 ml of GF buffer containing 2.97 mM DTT. Proteins consisted of 3.8 mg of conalbumin (75 kDa), 2.3 mg carbonic anhydrase (29 kDa) and 6.7 mg aprotinin(6.5 kDa), each from the Low Molecular Weight Gel Filtration Calibration Kit (GE Healthcare; #28-4038-41), and 6 mg of lysozyme (14.3 kDa) (Sigma; #L6876-10G). The dissolved solution (1 ml, determined using a 1 ml loop) was loaded onto a 120 ml HiLoad™Superdex™ 200 16/60 prep-grade column (GE Healthcare) and separated at a 1 ml/min flow rate using the BioLogicDuoFlow™ FPLC system. For size estimations, gel-filtration of SSM-‘RBD’5 (WT), SSM-‘RBD’5 (E424H, D427V) and ‘RBD’2-RBD3 was performed as described for the size standards. SSM-‘RBD’5 (WT) was loaded at 8 mg/ml, SSM-‘RBD’5 (E424H, D427V) was loaded, and ‘RBD’2-RBD3 was loaded at 6 mg/ml.

[2] = target: T1, mRFP-SSM-‘RBD’5 (human, UniProt D2GVP7 455-564 (Ailuropoda melanoleuca entry), N-terminal mRFP fusion is not carried in the letters.); assay: anti-GFP co-IP from HEK293T lysates with RNase A, western blotting
T1 construct: Expressed in HEK293T cells; also called monomeric red fluorescence protein-SSM-‘RBD’5; product of pmRFP-hSTAU1-SSM-‘RBD’5; not shown: N-terminal mRFP (monomeric DsRed from a pDsRed-Express-C1 derivative) and the vector-encoded linker
T1 sequence: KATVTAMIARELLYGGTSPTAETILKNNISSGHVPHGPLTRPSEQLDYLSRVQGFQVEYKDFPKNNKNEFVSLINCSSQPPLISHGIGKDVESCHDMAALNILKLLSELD

[3] = target: T2, cellular hUPF1 (human, UniProt Q92900-2 1-1118, limits assumed); assay: co-immunoprecipitation with anti-GFP from HEK293T lysates in the presence of RNase A; western blot alpha-UPF1
T2 construct: Endogenous protein detected by western blotting
T2 sequence (looked up): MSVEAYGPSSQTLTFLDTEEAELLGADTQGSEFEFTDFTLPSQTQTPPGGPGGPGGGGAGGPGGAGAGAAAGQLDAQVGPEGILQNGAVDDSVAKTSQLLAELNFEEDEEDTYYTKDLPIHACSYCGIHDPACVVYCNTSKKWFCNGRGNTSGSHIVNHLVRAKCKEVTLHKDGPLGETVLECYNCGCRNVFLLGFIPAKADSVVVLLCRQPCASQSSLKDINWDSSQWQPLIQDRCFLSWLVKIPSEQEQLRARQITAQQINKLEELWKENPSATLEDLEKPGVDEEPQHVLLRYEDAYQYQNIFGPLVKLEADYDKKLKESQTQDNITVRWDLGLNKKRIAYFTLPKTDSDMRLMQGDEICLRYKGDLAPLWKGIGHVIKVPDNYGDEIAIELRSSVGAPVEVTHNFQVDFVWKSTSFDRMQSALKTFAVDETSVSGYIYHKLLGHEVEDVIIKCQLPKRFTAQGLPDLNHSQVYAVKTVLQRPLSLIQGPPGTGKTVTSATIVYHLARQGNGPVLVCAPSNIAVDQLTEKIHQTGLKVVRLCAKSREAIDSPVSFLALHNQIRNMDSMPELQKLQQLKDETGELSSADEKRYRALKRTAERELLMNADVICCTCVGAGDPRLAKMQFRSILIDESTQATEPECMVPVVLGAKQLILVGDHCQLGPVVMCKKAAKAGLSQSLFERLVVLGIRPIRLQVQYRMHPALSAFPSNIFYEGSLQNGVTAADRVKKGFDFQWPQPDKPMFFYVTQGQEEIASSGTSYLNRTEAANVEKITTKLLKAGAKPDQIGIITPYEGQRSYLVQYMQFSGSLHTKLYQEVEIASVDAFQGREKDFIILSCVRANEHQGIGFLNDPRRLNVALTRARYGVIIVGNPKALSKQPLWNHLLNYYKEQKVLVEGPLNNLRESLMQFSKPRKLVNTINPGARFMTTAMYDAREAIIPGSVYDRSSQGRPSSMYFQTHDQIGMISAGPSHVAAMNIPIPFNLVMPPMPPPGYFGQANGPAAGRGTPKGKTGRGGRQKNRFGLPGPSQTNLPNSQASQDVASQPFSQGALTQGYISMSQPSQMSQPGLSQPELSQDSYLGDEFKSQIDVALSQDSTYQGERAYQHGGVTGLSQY

[4] = target: T3, calnexin (UniProt P27824 21-592); assay: co-immunoprecipitation with anti-GFP from HEK293T lysates in the presence of RNase A; western blot alpha-Calnexin (control for IP specificity)
T3 construct: Specificity control
T3 sequence (looked up): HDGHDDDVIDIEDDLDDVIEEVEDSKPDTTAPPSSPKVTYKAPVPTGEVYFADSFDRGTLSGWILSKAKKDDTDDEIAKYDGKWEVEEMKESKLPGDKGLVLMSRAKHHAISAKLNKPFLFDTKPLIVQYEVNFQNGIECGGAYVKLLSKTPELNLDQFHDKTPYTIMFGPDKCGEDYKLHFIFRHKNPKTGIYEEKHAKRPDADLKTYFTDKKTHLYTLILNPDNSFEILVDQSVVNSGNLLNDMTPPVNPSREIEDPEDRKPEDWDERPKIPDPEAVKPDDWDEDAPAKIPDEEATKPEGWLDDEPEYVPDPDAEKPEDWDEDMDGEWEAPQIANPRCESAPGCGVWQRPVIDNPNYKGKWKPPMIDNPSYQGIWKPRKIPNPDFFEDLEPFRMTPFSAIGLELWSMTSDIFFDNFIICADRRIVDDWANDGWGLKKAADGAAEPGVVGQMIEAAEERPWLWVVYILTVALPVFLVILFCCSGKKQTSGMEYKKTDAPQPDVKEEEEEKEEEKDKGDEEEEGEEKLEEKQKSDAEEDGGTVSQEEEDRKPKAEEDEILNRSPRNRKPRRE
From the text: Western blotting (WB) using the specified antibody, where calnexinservesto control for IP specificity. Results are representative of three independently performed experiments.
Human embryonic kidney (HEK)293T cells were transiently transfected with a mixture of two plasmids: (i) pEGFP-‘RBD’5, which produces monomeric enhanced green fluorescence protein (EGFP)-‘RBD’5 and either pmRFP-SSM-‘RBD’5 or pmRFP-‘RBD’5, which produce monomeric red fluorescence protein (mRFP)—SSM-‘RBD’5 or mRFP-‘RBD’5, respectively; or (ii) pEGFP-SSM-‘RBD’5 and either pmRFP-SSM-‘RBD’5 or pmRFP-‘RBD’5 (FIG. 1D, upper). […] Cell lysates were immunoprecipitated in the presence of RNase A using anti-GFP or, to control for nonspecific immunoprecipitation (IP), mouse(m)IgG.

[5] = target: T2, cellular hUPF1; assay: anti-FLAG co-IP from HEK293T lysates with RNase A, quantitated western blot
From the text: (§1) To test this idea, HEK293T cells were transiently transfected with hSTAU1⁵⁵-HA₃ and one of three siRNA-resistant (R) plasmids that produce either hSTAU1^{55(R)}-FLAG, hSTAU1^{55(R)}Δ(C-Term)-FLAG or hSTAU1^{55(R)}Δ(SSM-‘RBD’5)-FLAG, each of which was expressed at the level of cellular hSTAU 1. hSTAU1^{55(R)}Δ(C-Term)-FLAG lacks all amino acids C-terminal to ‘RBD’5 Δ1. Cell lysates were immunoprecipitated in the presence of RNaseA using anti-FLAG or, as a negative control, mIgG.
(§2) The level of hSTAU1⁵⁵-HA₃ or cellular hUPF1 that co-immunoprecipitated with hSTAU1^{55(R)}Δ(SSM-‘RBD’5)—FLAG was only ˜10% the level of, respectively, hSTAU1⁵⁵-HA₃ or cellular hUPF1 that co-immunoprecipitated with hSTAU1^{55(R)}-FLAG or hSTAU1^{55(R)}Δ(C-Term)-FLAG.

[6] = target: T4, hSTAU1^55-HA3 (human, UniProt O95793-2 1-496); assay: as above
T4 construct: also called STAU1-HA3
T4 sequence (looked up): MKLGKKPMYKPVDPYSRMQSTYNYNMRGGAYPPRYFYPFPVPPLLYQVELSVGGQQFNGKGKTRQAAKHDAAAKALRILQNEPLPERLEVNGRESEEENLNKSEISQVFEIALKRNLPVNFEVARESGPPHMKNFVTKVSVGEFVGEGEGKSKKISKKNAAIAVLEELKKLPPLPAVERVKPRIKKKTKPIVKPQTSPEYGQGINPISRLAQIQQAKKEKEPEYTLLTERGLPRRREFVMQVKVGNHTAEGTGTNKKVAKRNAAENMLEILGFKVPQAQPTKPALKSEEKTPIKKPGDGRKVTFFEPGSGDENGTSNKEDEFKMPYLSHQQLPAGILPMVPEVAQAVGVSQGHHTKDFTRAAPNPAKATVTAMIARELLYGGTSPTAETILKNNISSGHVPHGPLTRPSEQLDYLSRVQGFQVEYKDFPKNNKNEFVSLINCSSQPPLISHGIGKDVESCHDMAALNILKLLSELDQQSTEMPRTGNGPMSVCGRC
From the text: as §1, §2

[7] = target: T4, hSTAU1^55-HA3; assay: anti-HA co-IP (reverse direction) from HEK293T lysates, quantitated western blot
From the text: as §1, with “Cell lysates were immunoprecipitated in the presence of RNaseA using anti-FLAG or, as a negative control, mIgG.” left out
as §2

[8] = target: T2, cellular hUPF1; assay: anti-GFP co-IP from HEK293T lysates with RNase A, western blotting
[9] = target: T5, mRFP-‘RBD’5 (human, UniProt O95793-2 407-476); assay: as above
T5 construct: domain: ‘RBD’5; also called monomeric red fluorescence protein-‘RBD’5; product of pmRFP-hSTAU1-‘RBD’5; not shown: N-terminal mRFP (monomeric DsRed derived from pDsRed-Express-C1) with vector linker
T5 sequence (looked up): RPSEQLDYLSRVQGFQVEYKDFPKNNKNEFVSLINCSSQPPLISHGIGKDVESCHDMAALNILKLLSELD

B1: hSTAU1 ‘RBD’2-RBD3 (amino acids 43-173) (other, human, UniProt O95793-2 43-173, looked up)
chain: PLLYQVELSVGGQQFNGKGKTRQAAKHDAAAKALRILQNEPLPERLEVNGRESEEENLNKSEISQVFEIALKRNLPVNFEVARESGPPHMKNFVTKVSVGEFVGEGEGKSKKISKKNAAIAVLEELKKLPP
notes: range 43-173; Made in E. coli from pGEX-6p-1 and cut with PreScission Protease; also called product of pGEX-6p-1-hSTAU1-‘RBD’2-RBD3
- binding result [1]: binds

B3: hSTAU1^55(R)Δ(SSM-‘RBD’5)-FLAG (other, human, UniProt O95793-2 1-363, looked up, not shown: small tags and cut ends)
chain: MKLGKKPMYKPVDPYSRMQSTYNYNMRGGAYPPRYFYPFPVPPLLYQVELSVGGQQFNGKGKTRQAAKHDAAAKALRILQNEPLPERLEVNGRESEEENLNKSEISQVFEIALKRNLPVNFEVARESGPPHMKNFVTKVSVGEFVGEGEGKSKKISKKNAAIAVLEELKKLPPLPAVERVKPRIKKKTKPIVKPQTSPEYGQGINPISRLAQIQQAKKEKEPEYTLLTERGLPRRREFVMQVKVGNHTAEGTGTNKKVAKRNAAENMLEILGFKVPQAQPTKPALKSEEKTPIKKPGDGRKVTFFEPGSGDENGTSNKEDEFKMPYLSHQQLPAGILPMVPEVAQAVGVSQGHHTKDFTRAAP
notes: domain: Δ(SSM-‘RBD’5); End at residue 363 is read from the primer; also called product of pcI-neo-hSTAU1^55(R)Δ(SSM-‘RBD’5)-FLAG
- level of co-immunoprecipitated cellular hUPF1 relative to that with hSTAU1^55(R)-FLAG or hSTAU1^55(R)Δ(C-Term)-FLAG [5]: ~10%
- level of co-immunoprecipitated hSTAU1^55-HA3 relative to that with hSTAU1^55(R)-FLAG or hSTAU1^55(R)Δ(C-Term)-FLAG [6]: ~10%
- level co-immunoprecipitated with hSTAU1^55-HA relative to hSTAU1^55(R)-FLAG or hSTAU1^55(R)Δ(C-Term)-FLAG [7]: ~10%

The next lines start with the values.

- binding result [2]: binds
- binding result [3]: no binding
- binding result [4]: no binding
B2: EGFP-SSM-‘RBD’5 (other, human, UniProt O95793-2 367-476, looked up)
chain: T1 sequence
notes: range 367-476; Expressed in HEK293T cells; tested in lysates with RNase A; also called monomeric enhanced green fluorescence protein-SSM-‘RBD’5; product of pEGFP-hSTAU1-SSM-‘RBD’5; not shown: N-terminal monomeric EGFP from pEGFP-C3 (BD Biosciences Clontech) with vector linker

- binding result [8]: no binding
- binding result [9]: no binding
- binding result [4]: no binding
B4: EGFP-‘RBD’5 (other, human, UniProt O95793-2 407-476, looked up)
chain: T5 sequence (looked up)
notes: domain: ‘RBD’5; also called monomeric enhanced green fluorescence protein-‘RBD’5; product of pEGFP-hSTAU1-‘RBD’5; not shown: N-terminal monomeric EGFP from pEGFP-C3 with vector linker

Source: US20130317087A1 (UNIVERSITY OF ROCHESTER, published 2013)
